Data: patent US20210292393A1 (published 2021)
Numbering of substitutions follows the chain as printed.

B1: antibody 541 (antibody, V domains shown)
VH: QVQLVQSGAEVKKPGASVKVSCKASGYTFTSYYVHWVRQAPGQSLEWMGVISPSTGSTTYAQNFQGRVTMTRDTSTTTVYMELSSLRSEDTAVYYCARDDYYDSTRYFDLWGRGTLVTVSS
VL: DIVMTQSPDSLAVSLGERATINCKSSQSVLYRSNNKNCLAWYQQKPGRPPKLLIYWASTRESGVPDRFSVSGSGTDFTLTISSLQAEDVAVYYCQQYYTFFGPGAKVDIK
B2: antibody 522 (antibody, V domains shown)
VH: EVQLVESGGGLVQPGGSLRLSCAASGFNFSSYSMNWVRQAPGKGLEWVSYISSSSSTIYYADSVKGRFTISRDNAKNSLYLQMNSLRDEDTAVYYCARGPEWDIVVVQAENWFDPWGQGTLVTVSS
VL: SYELTQPPSVSVSPGQTARITCSGDALPKQYVYWYQQKPGQAPVLVIYKDSERPSGIPERFSGSSSGTTVTLTISGVQAEDEADYYCQSADSSGTYRGVFGGGTKLTVL
B3: antibody 510 (antibody, V domains shown)
VH: QVQLQESGPGLVKPSQTLSLTCTVSGGSISSGSYYWSWIRQPAGKGLEWIGRIYTSGSTNYNPSLKSRVTISVDTSKNQFSLKLSSVTAADTAVYYCAREGQWLYRFDYWGQGTLVTVSS
VL: QSALTQPASVSGSPGQSITISCTGTSSDVGNYDLVSWYQQHPGKAPKLVIYGVTKRPSGVSNRFSGSKSGNTASLTISGLQAEDEADYYCCSYATGDTSVFGTGTKVTVL
B4: antibody 523 (antibody, V domains shown)
VH: EVQLVESGGVSVQPGGSLRLSCAASGFSFNTYDMHWVRQGTGKGLEWVSGIGTAGDTYYSDSVKGRCTISRDNAKNSLHLLVKSVRAADTAVYYCARGVGGIIDYWGQGTLVTVSS
VL: NFVLSQPHSVSESPGKTVTISCTGNSGSIATKYVQWFQQRPGSAPTTVIYEDNQRPSGVPDRFSGSSDSSSNSASLTISGLKTEDEAHYYCQSYHNRRWVFGGGTKLTVL
B5: antibody 537 (antibody, V domains shown)
VH: QVQLQQWGAGLLKPSETLSLTCAVYGGSFSGYYWSWIRQPPGKGLEWIGEINHSGSTNYNPSLKSRVTISVDTSKNQFSLKLSSVTAADTAVYYCARGLYYDMGGGFDYWGQGTLVTVSS
VL: not shown
B6: antibody 514 (antibody, V domains shown)
VH: EVQLVQSGAEVKKPGATVKISCKVSGYTFTDYYMHWVQQAPGKGLEWMGLVDPEDGETIYAEKFQGRVTITADTSTDTAYMELSSLRSEDTAVYYCATDCKYDILTGHYSAGYYYYGMDVWGQGTTVTVSS
VL: DIQMTQSPSSLSASVGDRVTITCRASQGISNYLAWFQQKPGKAPKSLIYAASSLQSGVPSKFSGSGSGTDFTLTISSLQPEDFATYYCQQYNSYPFTFGGGTKVEIK
B7: antibody 533 (antibody, V domains shown)
VH: GVQLVESGGVVVQPGGSLRLSCAASGFSFDDYTMHWVRQAPGKGLEWVSLVSWDGGTTYYTDSVKGRFTISRDNSKNSLYLQMNSLRTEDTALYFCAKDSGRIVPAATFDYWGQGTLVTVSS
VL: B6 VL with P8S, G28D, N92Y, S93T, F96L
B8: antibody 543 (antibody, V domains shown)
VH: EVQLVESGGGLVQPGRSLRLSCAASGFTFHDYAMHWVRQAPGKGLEWVSGISWNSGSIGYADSVKGRFTISRDNAKNSLYLQMNSLRAEDTALYYCAKDTFGSSSWYRGDSYYYYGMDVWGQGTTVTVSS
VL: QSALTQPASVSGSPGQSITISCTGTSSDVGGYNYVSWYQQHPGKAPKLMIYEVSNRPSGVSNRFSGSKSGNTASLTISGLQAEDEADYYCSSYTSSSTQRYVVFGGGTKLTVL
B9: antibody 516 (antibody, V domains shown)
VH: QVELQQWGAGLLKPSETLSLTCAVYGGSFSGYYWSWIRQPPGKGLEWIGEINHSGSTNYNPSLKSRVTISIDTSKNQFSLKLSSVTAADTAVYYCARGTTVTTFFAPHWYFDLWGRGTLVTVSS
VL: QSALTQPASVSGSPGQSITISCTGTSSDVGGYNYVSWYQQHPGKAPKLMIYDVSNRPSGVSNRFSGSKSGNTASLTISGLQAEDEADYYCSSYTSSSTPYVFGTGTKVTVL

target: SARS-CoV spike protein (full-length trimeric, on beads) (SARS-CoV, UniProt P59594 14-1190)

Binder	bead binding signal, fold over isotype control [fold over isotype]
B1	1.2
B2	1.21
B3	1.03
B4	1.11
B5	1.04
B6	1.15
B7	1.23
B8	1.03
B9	1.03
